Data: paper PMC7246340, “A Novel Anti-Kv10.1 Nanobody Fused to Single-Chain TRAIL Enhances Apoptosis Induction in Cancer Cells” (Frontiers in Pharmacology, 2020)

B5: h1x antigen (E3-S5-pore segment fused to the C-terminal coiled coil domain of Kv10.1 and to thioredoxin) (domain or fragment, human)
chain: IGDYEIFDEDTKTIRNNSWLYQLAMDIGTPYQFNGSGSGKWEGGPSKNSVYISSLYFTMTSLTSVGFGNIAPSTDIEK
notes: Kv10.1 voltage-gated potassium channel, E3 segment (extracellular linker between S5 and S6 transmembrane segments, extending to the pore loop); numbers count on: Homo sapiens Kv10.1, isoform 1 (UniProt O95259-2); Kv10.1 voltage-gated potassium channel, C-terminal tetramerizing coiled-coil (C-terminal assembly domain); The coiled coil was added with the aim to induce tetramerization; the …

Legend:
[1] = molecular target: B5
[2] = molecular target: B5; assay: ELISA; plates coated overnight with 500 ng h1x in TBS, blocked with 2% BSA; VHHs (E. coli culture supernatants) incubated 2 h at different concentrations; detected by mouse anti-His antibody and peroxidase-conjugated anti-mouse; apparent affinities; conditions: one partner purified
[3] = molecular target: B5; assay: SPR; recombinant antigen h1x immobilised on the chip; serial dilution of nanobody as analyte (D9 3.12 nM to 200 nM, C4 25 nM to 400 nM); 1:1 Langmuir model; conditions: both partners purified
[4] = molecular target: B5; assay: ELISA; plates coated overnight with 500 ng h1x in TBS, blocked with 2% BSA; VHHs (E. coli culture supernatants) incubated 2 h at different concentrations; detected by mouse anti-His antibody and peroxidase-conjugated anti-mouse; apparent affinities; conditions: one partner purified; remark: listed apart in the source
[5] = molecular target: T1, VHH-D9-scTRAIL (llama (Lama glama) | ); assay: ELISA; plates coated with 500 ng h1x or h2x, blocked with 3% BSA; Ab-scTRAIL constructs (CHO-K1 supernatants, not further purified) incubated 2 h at different concentrations; detected with the anti-TRAIL conjugate of the Quantikine TRAIL ELISA kit; apparent affinities; conditions: one partner purified
T1 construct: nanobody D9, as the VHH of m4 without its His tag; TRAIL (Tumor Necrosis Factor-Related Apoptosis-Inducing Ligand) fragment, first of three in single-chain TRAIL; short peptide linker between TRAIL fragments; TRAIL fragment, second of three in single-chain TRAIL; TRAIL fragment, third of three in single-chain TRAIL; a linker between VHH and scTRAIL is not described; Vector tags were eliminated by …

B1: E12 (VHH)
VHH: EVQLVESGGGLVQAGGSLRLSCTASGRTFSSYIFAWFRQAPGEERKFVAGITGNGGTGYSNSVKGRFTISRDNAKNTVLLQMNNLKPDDTAVYYCAAHSRSSYYYRGPDLYDYWGQGTQVTVSS
B1: binds [1].

B2: G10 (VHH)
VHH: EVQLVESGGGLVQPGGSLRLSCTAAGRTFSTYILAWFRQAPGEERKFVAGITGNGETGYSNSVKGRFTIARDNAKNTVFLQMNNLKPEDTAVYYCAAHSRSTYYYKGPDLYDYGQGTQVTVSS
B2: binds [1].

B3: anti-Kv10.1 nanobody VHH-C4 (VHH)
VHH: RLLLVQSGGGLVQAGGSLRLSCAASGRTFSNYAMYWFRQTPGKDREFVASISYSGTFTDYAGSVKGRFTISRDNAKNTLYLQMNSLRPEDTAVYYCSLDRHYWGPGTQVTVSS
notes: Short CDR3 (six residues); His tag comes from the phage display vector; The preparation used for SPR is not described; source: E. coli TG1TR, culture supernatants (ELISA)
Work on B3 yielded a Kd [2] of 81 nM, a Kd [3] of 1800 nM and a Kd [4] of 87 nM.

B4: anti-Kv10.1 nanobody VHH-D9 (VHH)
VHH: QVQLVQSGGGLVQAGGSLRLSCAASGRTFSNYAMYWFRQTPGKDREFVASISYSGTFTDYAGSVKGRFTISRDNAKNRLYLQMNSLKPEDTAVYYCSLDRLYWGQGTQVTVSS
notes: a model in PDB format is also in the Supplementary Information; Short CDR3 (six residues); His tag comes from the phage display vector; The preparation used for SPR is not described; source: E. coli TG1TR, culture supernatants (ELISA)
Binder B4 has a Kd [3] of 78 nM and a Kd [4] of 11 nM.

For B5, the Kd [5] was 0.029 nM.

B6: anti-Kv10.1 nanobody A12 (VHH)
VHH: RCKLQESGGGLVQAGGSLRLSCTAAGRTFSSYILAWFRQAPGEERKFVAGITGNGETGYSNSVKGRFTISRDNAKNTVLLQMNNLKPEDTAVYYCAAHSRSTYYYRGPDLYDYWGQGTQVTVSS
notes: From a phage display library of a llama immunised with h1x; His tag comes from the phage display vector; source: E. coli TG1TR, culture supernatants (ELISA)
B6 was tested, and the Kd [4] was 343 nM.

B7: anti-Kv10.1 nanobody F5 (VHH)
VHH: QVQLVQSGGGLVQAGGSLRLSCAASGRTFENYIMAWFRQAPGEERKFVAAITGNGGTGYADSVKGRFTISRDNAKNTVLLQMNSLKPEDTAVYYCAAHSRSSYYYKGPDLYDYWGQGTQVTVSS
notes: as for B6
Binder B7 has a Kd [4] of 470 nM.

B8: anti-Kv10.1 nanobody F6 (VHH)
VHH: QVQLVQSGGGLVQAGGSLRLSCTASGRTFGSYILAWFRQTPGEERKFVAGITGNGGTGYSDSVKGRFTISRDNAKNTVLLQMNNLKPEDTAVYYCAAHSRSSYYYKGPDLYDYWGQGTQVTVSS
notes: as for B6
B8 was tested, and the Kd [4] was 177 nM.

B9: anti-Kv10.1 nanobody G1 (VHH)
VHH: VQLVEVWGRIGAKRGGSLRLSCTAAGRTFSSYILAWFRQAPGEERKFVAGITGNGETGYSNSVKGRFTISRDNAKNTVLLQMNNLKPEDTAVYYCAAHSRSIYYYRGPDLYDYWGQGTQVTVSS
notes: as for B6
With B9 the Kd [4] was 431 nM.

B10: anti-Kv10.1 nanobody G4 (VHH)
VHH: QVQLVQSGGGLVQAGGSRRLSCTASGRTFSSYILGWFRQAPGEERKFVAAITGNGGTGYADSVKGRFTISRDNAKNTVLLQMNSLKPEDTAVYYCAAHSRSSYYYRGPDLYDYWGQGTQVTVSS
notes: as for B6
With B10 the Kd [4] was 943 nM.
